Data as given in US20260166131A1, “METHOD FOR PROMOTING PATHOLOGICAL TDP-43 PROTEIN DEGRADATION, AND DRUG” (TALENGEN INTERNATIONAL LIMITED, priority 2022, published 2026).
Entries after “also recorded” stand apart in the source; their conditions may differ.

Legend:
TDP-43 = TDP-43 (Mus musculus, UniProt Q921F2); assay: Immunofluorescence co-localization staining of plasminogen and TDP-43 in gluteal muscle tissue of SOD1-G93A mice; format: in vivo; design: from tissue; host or cells: mouse spinal cord, gluteal muscle, brain, kidney cell nuclei; conditions: 1 mg/mouse tail vein every day
Method: Five wild-type male mice and nine male SOD1-G93A mice of similar week-age were selected. Wild-type mice served as the blank control group, and SOD1-G93A mice were observed and recorded from the time of hind leg tremor when they became ill at week 14, and the onset time of each mouse was recorded. Administering to mice 14 days after the onset of the disease. All mice were randomly divided into a vehicle group and a plasminogen administration group according to the onset of the disease: 5 mice in the vehicle group, which were injected with 0.1 ml of vehicle (sodium citrate buffer)/mouse by tail vein every day; 4 mice in the plasminogen administration group, which were injected with 1 mg of plasminogen/0.1 ml of vehicle/mouse by tail vein every day. The vehicle and plasminogen were administered continuously under SPF environment, and the samples were collected at the near-death stage. The longest administration was 61 days. The gluteal muscle tissue collected was fixed in formalin fixative solution. The fixed tissues were dehydrated with gradient alcohol and transparentized with xylene before being embedded in paraffin. The thickness of tissue sections was 3 μm, and the sections were dewaxed and rehydrated and then washed once. The sections were immersed in antigen retrieval working solution (0.01 M sodium citrate buffer) to perform microwave retrieval: preheating for 5 minutes, high heating for 2 minutes, and low heating for 15 minutes. […] The green fluorescence color development of the corresponding anti-plasminogen secondary antibody was performed according to the instructions of the XTSA520 IHC kit (Alpha X Biotech, AXT6202500), washing 3 times with PBS for 5 minutes each time. […] The red fluorescence color development of the corresponding anti-TDP-43 secondary antibody was performed according to the instructions of the XTSA620 IHC kit (Alpha X Biotech, AXT6502500), washing 3 times with PBS for 5 minutes each time. […]

[1] = Spinal cord tissue plasminogen level in MPTP Parkinson's model mice (ELISA); format: in vivo, mouse; conditions: 50 mg/kg tail vein
[2] = Plasmin activity in brain tissue of MPTP/LPS Parkinson's model mice (enzyme substrate kinetic method); format: in vivo, mouse; conditions: MPTP + LPS Parkinson's model mice, 50 mg/kg tail vein single dose, 2 hours, vs vehicle group, P<0.05
Method: Fifteen female mice were taken to weigh before modeling. […] All mice in the model group were intraperitoneally injected with 5 mg/mL MPTP solution at 35 mg/kg/mouse, and the mice in the blank control group were intraperitoneally injected with 7 mL/kg normal saline. The modeling time was set at 9 am every day, and the injections were continued for 5 days. 24 hours after the last MPTP injection, all mice were weighed and injected intraperitoneally with 5 mg/kg LPS solution. […] The plasmin activity in brain tissue homogenate was detected by enzyme substrate kinetic method. […] 85 μL/well of seven different concentrations of standard solution, blank, and sample were added to the ELISA plate in sequence, and then 15 μL of 20 mM S-2251 solution (Chromogenix, 82033239) was added to each well to incubate at 37° C. Starting from 0 min of reaction, the A405 absorbance value was read in a multifunctional microplate reader every 5 min until the reaction time was 90 min. All reactions were fitted with a straight line by time and absorbance, and the slope of the straight line was the reaction rate of the standard/sample (ΔA405/min). Finally, the potency value of the standard substance and ΔA405/min were used to create a standard curve to calculate the potency of the measured samples.

TDP-43, sequence (Q921F2 whole entry): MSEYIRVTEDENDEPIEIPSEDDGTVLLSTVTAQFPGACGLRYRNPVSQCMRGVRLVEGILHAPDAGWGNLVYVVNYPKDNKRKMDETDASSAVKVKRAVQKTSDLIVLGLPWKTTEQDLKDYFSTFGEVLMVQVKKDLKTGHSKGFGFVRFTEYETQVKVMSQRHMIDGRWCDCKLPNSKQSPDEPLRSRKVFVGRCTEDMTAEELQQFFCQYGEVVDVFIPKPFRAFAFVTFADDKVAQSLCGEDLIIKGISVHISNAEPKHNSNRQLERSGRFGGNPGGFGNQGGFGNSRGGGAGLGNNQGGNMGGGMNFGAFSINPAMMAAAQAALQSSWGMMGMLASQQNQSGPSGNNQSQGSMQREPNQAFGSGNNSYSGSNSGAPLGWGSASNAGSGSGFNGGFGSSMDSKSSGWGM

B1: plasminogen: human plasminogen purified from human donor plasma, in which human Lys-plasminogen and Glu-plasminogen are >98% (protein)
chain: KVYLSECKTGNGKNYRGTMSKTKNGITCQKWSSTSPHRPRFSPATHPSEGLEENYCRNPDNDPQGPWCYTTDPEKRYDYCDILECEEECMHCSGENYDGKISKTMSGLECQAWDSQSPHAHGYIPSKFPNKNLKKNYCRNPDRELRPWCFTTDPNKRWELCDIPRCTTPPPSSGPTYQCLKGTGENYRGNVAVTVSGHTCQHWSAQTPHTHNRTPENFPCKNLDENYCRNPDGKRAPWCHTTNSQVRWEYCKIPSCDSSPVSTEQLAPTAPPELTPVVQDCYHGDGQSYRGTSSTTTTGKKCQSWSSMTPHRHQKTPENYPNAGLTMNYCRNPDADKGPWCFTTDPSVRWEYCNLKKCSGTEASVVAPPPVVLLPDVETPSEEDCMFGNGKGYRGKRATTVTGTPCQDWAAQEPHRHSIFTPETNPRAGLEKNYCRNPDGDVGGPWCYTTNPRKLYDYCDVPQCAAPSFDCGKPQVEPKKCPGRVVGGCVAHPHSWPWQVSLRTRFGMHFCGGTLISPEWVLTAAHCLEKSPRPSSYKVILGAHQEVNLEPHVQEIEVSRLFLEPTRKDIALLKLSSPAVITDKVIPACLPSPNYVVADRTECFITGWGETQGTFGAGLLKEAQLPVIENKVCNRYEFLNGRVQSTELCAGHLAGGTDSCQGDSGGPLVCFEKDKYILQGVTSWGLGCARPNKPGVYVRVSRFVTWIEGVMRNN
co-localization of plasminogen with TDP-43 in muscle tissue (cytoplasm and nucleus) (TDP-43): co-localizes with TDP-43
subcellular presence of plasminogen in muscle tissue (TDP-43): present in the cytoplasm (as indicated by Δ) and in the nucleus; also recorded: present in the cytoplasm (as indicated by Δ) and the nucleus
positive staining of plasminogen in muscle tissue (TDP-43; up to 61 days, vs vehicle group): significantly more
time within which plasminogen is almost completely metabolized (spinal cord tissue) [1]: 12 to 24 h
plasminogen level in the spinal cord tissue ([1]; vs vehicle group): significantly higher
level of plasmin activity in the brain tissue [2]: significantly higher
